Laboratory results from patent US8480647B2, “Delivery device for delivering bioactive agents to internal tissue in a body” (Bioprotect Ltd., priority 2007, dated 2013).

Key:
[1] = Release from L-PLA-co PEG5000 hydrogel-wall balloons in aqueous media; format: physicochemical; details: 1 cm balloons of L-PLA-co PEG5000 triblock or 50:50 mixture with L-PLA, 200 and 300 micron wall thicknesses
Protocol: In a similar experiment, biodegradable balloons of 1 cm diameter were prepared from triblock copolymers of L-PLA-co PEG5000, Mw=80,000 or in a 50:50 mixture with L-PLA Mw=120,000 by the solvent casting on a gelatin mold method. Balloons with 200 and 300 micron wall thicknesses were prepared. These balloons swell when inserted in aqueous media to form hydrogel walls which are permeable to water soluble molecules.

[2] = Release of loaded agents from poly(caprolactone-L-lactide)/PEG porogen balloons; format: physicochemical; details: for period of constant release from balloon: loaded with 10% w/v solution
Protocol: In a typical experiment, dichloromethane solutions of poly(caprolactone-L-lactide) 70:30 w/w, Mw=100,000 and polyethylene glycol Mw=400 (PEG400) and PEG2000 mixed at a 1, 5, 10 and 20 w/w % per polymer were used for producing balloons by dipping as described above. The balloons were immersed in water to allow the leach-out of the water soluble PEG. The balloons were analyzed for pore size, uniformity of pores throughout the membrane, and diffusion of LHRH hormone and BSA (bovine serum albumin) as representative protein. Uniform micron size holes of a similar size were generated for the 1 and 5% PEG but more holes for the 5%, while the 20% PEG generated much larger holes throughout the wall which also affects the strength of the wall. […] The balloon remain inflated for about 4 months in 0.1M phosphate buffer solution at 37° C. before signs of degradation occur measured by a significant decrease in molecular weight and change in the flexibility and clarity of the balloons. In a continuation experiment, lyophilized powder of LHRH (10 mg) on dextrose (100 mg) was dispersed in glycerol (100 mg) and injected into the 10 mm diameter balloon and release under physiological conditions was determined.

Compound | release from hydrogel-wall balloons [1] | release behaviour in comparison with the other loaded agents ([2]; poly(caprolactone-L-lactide)/PEG balloons) | period of constant release from balloon ([2]; 5% PEG balloons of poly(caprolactone-L-lactide) 70:30) | period of constant release from balloon ([2]; 20% PEG balloons of poly(caprolactone-L-lactide) 70:30) | release of native LHRH from balloon, determined by HPLC ([2]; lyophilized LHRH (10 mg) on dextrose (100 mg) dispersed in glycerol (100 mg), 10 mm diameter balloon, physiological conditions)
O=c1[nH]cc(F)c(=O)[nH]1 [5-FU] | constantly release at high amounts for weeks | released much faster for a shorter time period at a zero order profile | – | – | –
CN(Cc1cnc2nc(N)nc(N)c2n1)c1ccc(C(=O)N[C@@H](CCC(=O)O)C(=O)O)cc1 [methotrexate] | constantly release at high amounts for weeks | – | – | – | –
LHRH: LHRH hormone, therapeutic peptide loaded in the balloon | released at low concentrations over time | – | a few months | weeks | constantly released for weeks
